T1: Boi1 SH3 (BOI1_YEAST), P38041
T1 chain: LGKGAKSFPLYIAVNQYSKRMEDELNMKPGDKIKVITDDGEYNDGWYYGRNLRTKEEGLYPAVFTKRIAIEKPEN

T2: Boi2 SH3 (BOI2_YEAST), P39969
T2 chain: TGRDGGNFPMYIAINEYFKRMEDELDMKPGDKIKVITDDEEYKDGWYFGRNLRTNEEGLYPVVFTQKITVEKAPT

T3: Myo5 SH3 (MYO5_YEAST), Q04439
T3 chain: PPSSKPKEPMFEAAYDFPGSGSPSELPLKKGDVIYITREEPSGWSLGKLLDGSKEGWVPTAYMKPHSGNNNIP

T4: Rvs167 SH3 (RV167_YEAST), P39743
T4 chain: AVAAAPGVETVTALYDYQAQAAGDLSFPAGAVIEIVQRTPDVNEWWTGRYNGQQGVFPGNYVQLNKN

T5: Yfr024 SH3 (LSB3_YEAST), P43603
T5 chain: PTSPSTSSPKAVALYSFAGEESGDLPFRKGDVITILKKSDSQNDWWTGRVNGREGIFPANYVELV

T6: Yhr016c SH3 (YSC84_YEAST), P32793
T6 chain: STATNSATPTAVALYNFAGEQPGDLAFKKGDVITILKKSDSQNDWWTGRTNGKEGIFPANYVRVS


Assays:
Assay in all cases: SPOT array
[1] = molecular target: T1, Boi1 SH3 (BOI1_YEAST), P38041
[2] = molecular target: T2, Boi2 SH3 (BOI2_YEAST), P39969
[3] = molecular target: T3, Myo5 SH3 (MYO5_YEAST), Q04439
[4] = molecular target: T4, Rvs167 SH3 (RV167_YEAST), P39743
[5] = molecular target: Sho1 SH3 (SHO1_YEAST), P40073
[6] = molecular target: T5, Yfr024 SH3 (LSB3_YEAST), P43603
[7] = molecular target: T6, Yhr016c SH3 (YSC84_YEAST), P32793

Sho1 SH3 (SHO1_YEAST), P40073, sequence (P40073 295-366): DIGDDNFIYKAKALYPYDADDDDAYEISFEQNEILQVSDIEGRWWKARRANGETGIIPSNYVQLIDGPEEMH

Row | Binder | normalised SPOT signal, Boehringer light units (BLU); mean over the file's lines of this peptide [1] | normalised SPOT signal, Boehringer light units (BLU); mean over the file's lines of this peptide [2] | normalised SPOT signal, Boehringer light units (BLU); mean over the file's lines of this peptide [3] | normalised SPOT signal, Boehringer light units (BLU); mean over the file's lines of this peptide [4] | normalised SPOT signal, Boehringer light units (BLU); mean over the file's lines of this peptide [5] | normalised SPOT signal, Boehringer light units (BLU); mean over the file's lines of this peptide [6] | normalised SPOT signal, Boehringer light units (BLU); mean over the file's lines of this peptide [7]
1 | TNSVKATPVPPTLA [YLR337C 365-378] | 53.6 | 2.7 | 168 | 34.8 | 50.1 | 7.5 | 23.7
2 | TPQSRFPPYSPLLP [YDR103W 267-280] | 57.1 | 7.5 | 443 | 28 | 34.7 | 33.7 | 34.2
3 | TQMKRLKPVSPGLR [YEL050C 91-104] | 2890 | 1140 | 1450 | 1960 | 417 | 4080 | 634
4 | TQPVRKNPEAPARR [YOR042W 151-164] | 17200 | 32.4 | 232 | 410 | 60.1 | 3700 | 159
5 | TQSGRMGPSEPKHR [YML020W 26-39] | 728 | 34.4 | 456 | 336 | 78.4 | 637 | 109
6 | TSSTKEKPTPPTTT [YIR019C 265-278] | 0 | 0.9 | 118 | 34.3 | 21 | 58.6 | 29.7
7 | TSGYKYFPQFPQLK [YOR227W 765-778] | 95.1 | 32.8 | 235 | 58.8 | 36.2 | 134 | 20.3
8 | TSISRISPQDPEAK [YDR109C 25-38] | 95.3 | -0 | 194 | 8.5 | 29.1 | 20.2 | 19
9 | TSNTKWTPITPSVI [YDR515W 74-87] | 29.7 | 6.7 | 142 | 35 | 18.6 | 36.9 | 21
10 | TSSLRKPPNGPSSV [YOR097C 144-157] | 29.2 | 17.3 | 144 | 455 | 99 | 121 | 37.6
11 | TSSSRRGPGRPRKD [YDR310C 200-213] | 418 | 23.6 | 620 | 269 | 416 | 969 | 65
12 | TSWARDNPSKPDIA [YHR209W 243-256] | 82.3 | 20.3 | 81.6 | 34.6 | 40.9 | 260 | 49.1
13 | TTKHKAPPPPPPTA [YOR181W 179-192] | -0 | 20.8 | 1680 | 80 | 6.1 | 141 | 185
14 | TTNSRLSPSSPSSS [YJR038C 2-15] | 63 | 27.3 | 161 | 203 | 57.7 | 91.6 | 27.4
15 | TTRKKKDPNAPKRA [YPR052C 11-24] | 416 | 40.3 | 275 | 78.7 | 108 | 388 | 54
16 | TTRRKKDPNAPKRR [YBR089C-A 17-30] | 424 | 13 | 999 | 141 | 106 | 341 | 19.6
